Reference: patent US20230331848A1 (BIOSION, published 2023)

Biological target: T1, recombinant mouse PD-1-his protein (Cat#:50124-M08H, Sino Biological Inc) (mouse, UniProt Q02242 25-167)
T1 construct: Bought protein used in Biacore and indirect ELISA; not shown: his tag
T1 sequence (looked up): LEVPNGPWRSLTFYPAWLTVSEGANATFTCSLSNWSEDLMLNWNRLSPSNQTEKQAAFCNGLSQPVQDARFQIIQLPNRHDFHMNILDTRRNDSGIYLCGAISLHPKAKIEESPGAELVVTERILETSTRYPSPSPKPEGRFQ
Assay: indirect ELISA on coated mouse PD-1-his
Procedure: Briefly, 96-well micro plates were coated with 100 μl 2 μg/ml mouse PD-1-his (Cat#:50124-M08H, Sino Biological Inc) or 2 μg,/ml cynomolgus PD-1-his (Cat#:PD1-05223, Acro biosystems Inc.) in carbonate/bicarbonate buffer (pH 9.6) for 2 hours at 37° C. Plates were washed once with wash buffer (PBST, PBS+0.05% Tween-20) and then blocked with 200 μl blocking buffer (5% w/v non-fatty milk in PBST) for 2 hours at 37° C. […] ELISA plates were washed 4 times and incubated with Peroxidase AffiniPure goat anti-mouse IgG, Fcγ Fragment Specific (1:5000 dilution in PBST buffer, Cat#:115-035-071, Jackson ImmunoResearch Laboratories, Inc., 100 μl/well) or Peroxidase AffiniPure F(ab′)₂ Fragment Goat Anti-Human IgG, Fcγ fragment specific (Cat#:109-036-098, Jackson ImmunoResearch, for the controls) for 40 minutes at 37° C. After a final wash, plates were incubated with 100 μl/well TMB (Cat#:TMB-S-002, innoreagents) at room temperature. The reaction was stopped 3-10 minutes later with 50 μl/well 1M H₂SO₄, and the absorbance was read on a microplate reader using dual wavelength mode with 450 nm for TMB and 630 nm as the reference wavelength. Then the OD (450-630) values were plotted against antibody concentrations. Data was analyzed using GraphPad Prism software and EC₅₀ values were reported.

B1: mouse anti-PD-1 monoclonal antibody E1G5D1H1 (antibody, V domains shown)
VH: EVQLVESGGGLVKPGGSLKLSCAASGFTFSDFYMYWVRQTPEKRLEWVATISNSGTQTYYLDSVKGRFTISRDNAKNNLYLQMSSLKSEDTAMYYCARDYYRYDSWYFDVWGAGTTVTVSS
VL: DIVLTQSPASLAVSQGQRATISCRASESVDFYGTSLMQWFQLKPGQPPKLLIYAASNVESGVPARFSGSGSGTNFSLNIHPVEEDDIAMYFCQQSRKVPWTFGGGTNLEIK
notes: Hybridoma-derived mouse mAb; also called EIG5D1H1; E1G5DIH1
binding result: no binding (tested: 66.7 nM)
